According to patent publication CN112961250A (CHANGCHUN GENESCIENCE PHARMACEUTICALS CO LTD, dated 2021):

Molecular target: T1, 人VEGFC-His(金赛自构) (human)
T1 construct: also called hVEGFC-His; hVEGFC
T1 chain: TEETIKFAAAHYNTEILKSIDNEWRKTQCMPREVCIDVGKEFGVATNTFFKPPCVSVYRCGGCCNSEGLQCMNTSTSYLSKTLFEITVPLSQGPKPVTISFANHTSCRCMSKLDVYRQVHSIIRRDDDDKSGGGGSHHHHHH
Assay: ELISA, human VEGFC-His coated at 1 μg/ml

B1: 抗人VEGFC单克隆抗体P01-H1L4 (antibody, V domains shown)
VH: EVRLLESGGGLVQPGGSLRLSCAASGFTFRRSTMAWVRQAPGKGLEWVSSISAQGANTYYADNVKGRFTISRDNSKNTLYLQMNSLRAEDTAVYYCARDLPAGGFGPWGRGTMVTVSS
VL: SYELTQPPSSSGTPGQRVTISCRGSSSNIGRYSVSWYQQVPGTAPKLLIYTDNQRPSGVPDRFSASKSGTSASLTITGLQSEDEADYYCAAWDDSQYGPWVFGGGTKLTVL
notes: also called 阳性对照抗体P01-H1L4; 对照抗体P01-H1L4
binding result: binds
